Test results: the supplement of paper PMC9233669
Fewer inactive variants are shown than the library holds.

Experiments:
biotinyl-Val-oxazolone = assay: self-aminoacylation, catalytic enhancement (BVO) (fold over background); higher = more active; k-Seq, kA / k0A0; sequences stand for … in GGGAAUGGAUCCACAUCUACGAAUUC…UUCACUGCAGACUUGACGAAGCUG
Outline: (§1)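 Catalytic enhancement equals the median kA over the uncatalyzed rate, the latter read from the low-activity peak of a bimodal Gaussian fit. Values of kA came from fitting each sequence's fraction reacted to a pseudo-first-order model, with 1000 bootstraps. Reacted RNA was captured with streptavidin and quantified by triplicate qPCR and Illumina sequencing after 90 minutes at room temperature with 2–1250 μM biotinyl-aminoacyl-oxazolone and 0.43 μM mutagenized RNA pools bearing a 21-nt variable region.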

biotinyl-Ile-oxazolone = assay: self-aminoacylation, catalytic enhancement (BIO) (fold over background); higher = more active; k-Seq, kA / k0A0; sequences stand for … in GGGAAUGGAUCCACAUCUACGAAUUC…UUCACUGCAGACUUGACGAAGCUG
Outline: as §1

biotinyl-Met-oxazolone = assay: self-aminoacylation, catalytic enhancement (BMO) (fold over background); higher = more active; k-Seq, kA / k0A0; sequences stand for … in GGGAAUGGAUCCACAUCUACGAAUUC…UUCACUGCAGACUUGACGAAGCUG
Outline: as §1

biotinyl-Phe-oxazolone = assay: self-aminoacylation, catalytic enhancement (BFO) (fold over background); higher = more active; k-Seq, kA / k0A0; sequences stand for … in GGGAAUGGAUCCACAUCUACGAAUUC…UUCACUGCAGACUUGACGAAGCUG
Outline: as §1

biotinyl-Trp-oxazolone = assay: self-aminoacylation, catalytic enhancement (BWO) (fold over background); higher = more active; k-Seq, kA / k0A0; sequences stand for … in GGGAAUGGAUCCACAUCUACGAAUUC…UUCACUGCAGACUUGACGAAGCUG
Outline: as §1

biotinyl-Leu-oxazolone = assay: self-aminoacylation, catalytic enhancement (BLO) (fold over background); higher = more active; k-Seq, kA / k0A0; sequences stand for … in GGGAAUGGAUCCACAUCUACGAAUUC…UUCACUGCAGACUUGACGAAGCUG
Outline: as §1

Sequence	self-aminoacylation (biotinyl-Val-oxazolone)	self-aminoacylation (biotinyl-Ile-oxazolone)	self-aminoacylation (biotinyl-Met-oxazolone)	self-aminoacylation (biotinyl-Phe-oxazolone)	self-aminoacylation (biotinyl-Trp-oxazolone)	self-aminoacylation (biotinyl-Leu-oxazolone)
ACACACUUGAAGCAAUCGGUC [Fam1B.1 aminoacylation ribozyme variant]	1.23	1	0.88	1.25	1.17	0.919
ACACACUUUAAGCAAUCGGUC [Fam1B.1 aminoacylation ribozyme variant]	0.949	1.06	0.832	1.34	1.03	0.948
ACGUAUGCUAAUAGUCGCAAG [Fam3.1 aminoacylation ribozyme variant]	1.43	1.61	1.35	1.96	1.29	1.72
ACGUUCGCUAAUAGUCGCAAG [Fam3.1 aminoacylation ribozyme variant]	1.91	1.84	1.24	1.62	2.21	1.96
ACGUUUGCUAAUAGACGCAAG [Fam3.1 aminoacylation ribozyme variant]	1.12	1.3	0.935	0.853	1.11	0.849
ACGUUUGCUAAUAGUCGCAAU [Fam3.1 aminoacylation ribozyme variant]	1.33	1.66	1.45	2.06	1.53	1.51
ACGUUUGCUAAUAGUCGCACG [Fam3.1 aminoacylation ribozyme variant]	2.05	2.43	2.53	3.42	2.13	2.26
ACGUUUGCUAAUAGUCGUAAG [Fam3.1 aminoacylation ribozyme variant]	1.1	1.14	1.27	15.7	4.64	1.04
ACGUUUGCUACUAGUCGCAAG [Fam3.1 aminoacylation ribozyme variant]	1.47	1.76	2.16	2.4	1.31	1.7
ACGUUUGCUGAUAGUCGCAAG [Fam3.1 aminoacylation ribozyme variant]	1.35	1.52	1.12	4.7	1.69	1.57
ACGUUUUCUAAUAGUCGCAAG [Fam3.1 aminoacylation ribozyme variant]	1.53	1.75	1.59	2.79	1.55	1.67
ACUACACUGGUCAUCGAGUGA [Fam2.1 aminoacylation ribozyme variant]	3	3.3	4.45	13.7	5.78	4.81
ACUACCAUGGUCAUCGAGUGA [Fam2.1 aminoacylation ribozyme variant]	4.53	4.61	6.31	34.8	9.5	7.97
ACUACCCCGGUCAUCGAGUGA [Fam2.1 aminoacylation ribozyme variant]	2.87	3.29	5.95	30.8	5.9	5.9
ACUACCCUGGCCAUCGAGUGA [Fam2.1 aminoacylation ribozyme variant]	3.77	3.53	4.33	27.3	7.18	6.69
ACUACCCUGGUAAUCGAGUGA [Fam2.1 aminoacylation ribozyme variant]	3.16	3.32	7.36	43.4	9.29	7.43
ACUACCCUGGUCAUAGAGUGA [Fam2.1 aminoacylation ribozyme variant]	3.19	3.26	6.89	38.1	7.77	7.11
ACUACCCUGGUCAUCGAGUGC [Fam2.1 aminoacylation ribozyme variant]	2.44	2.18	5.55	10.1	4.17	5.6
ACUACCCUGGUCAUCGAGUGG [Fam2.1 aminoacylation ribozyme variant]	8.27	7	20.8	110	20.2	22.5
ACUACCCUGGUCAUCGAUUGA [Fam2.1 aminoacylation ribozyme variant]	1.02	1.01	1.05	1.59	1.16	1.16
ACUACCCUGGUUAUCGAGUGA [Fam2.1 aminoacylation ribozyme variant]	4.43	3.67	7.03	33.1	7.91	8.45
ACUAUCCUGGUCAUCGAGUGA [Fam2.1 aminoacylation ribozyme variant]	3.62	3.7	6.19	18.4	8.06	6.46
ACUCAACUAGGUCAUCGGGUG [Fam2.2 aminoacylation ribozyme variant]	4.88	5.56	5.62	48	5.38	6.97
ACUCACCUAGCUCAUCGGGUG [Fam2.2 aminoacylation ribozyme variant]	1.92	2.02	2.47	0.904	2.44	2.17
ACUCACCUAGGUCACCGGGUG [Fam2.2 aminoacylation ribozyme variant]	5.05	4.71	3.64	34.2	7.92	7.47
ACUCACCUAGGUCAUCGGCUG [Fam2.2 aminoacylation ribozyme variant]	3.01	2.1	2	7.96	2.35	1.31

Sequence	self-aminoacylation (biotinyl-Val-oxazolone)	self-aminoacylation (biotinyl-Ile-oxazolone)	self-aminoacylation (biotinyl-Met-oxazolone)	self-aminoacylation (biotinyl-Phe-oxazolone)	self-aminoacylation (biotinyl-Trp-oxazolone)	self-aminoacylation (biotinyl-Leu-oxazolone)
ACUCACCUAGGUCAUCGGGAG [Fam2.2 aminoacylation ribozyme variant]	2.08	2.33	2.48	1.04	2.46	2.28
ACUCACCUAGGUCAUCGGGCG [Fam2.2 aminoacylation ribozyme variant]	2.63	3.12	2.66	2.07	2.63	3.85
ACUCACCUAGGUCAUCGGGGG [Fam2.2 aminoacylation ribozyme variant]	3.19	3.75	3.42	22.1	4.06	3.57
ACUCACCUAGGUCAUCGGGUG [Fam2.2 aminoacylation ribozyme variant]	9.32	9.45	15.9	105	13.9	19.8
ACUCACGUAGGUCAUCGGGUG [Fam2.2 aminoacylation ribozyme variant]	3.73	2.89	3.04	32.9	3.88	4.27
ACUCACUUAGGUCAUCGGGUG [Fam2.2 aminoacylation ribozyme variant]	5.12	4.73	5.78	49.6	7.25	7.98
ACUCAGCUAGGUCAUCGGGUG [Fam2.2 aminoacylation ribozyme variant]	4.84	4.07	4.79	30.7	7.25	4.79
ACUCCCCUGGUCAUCGAGUGA [Fam2.1 aminoacylation ribozyme variant]	3.69	3.18	6.39	42.7	6.48	6.71
AGAACCCUGGUCAUCGAGUGA [Fam2.1 aminoacylation ribozyme variant]	21.2	19.6	57.5	354	56.9	58.5
AGGUUGGCUAAUAGUCGCAAG [Fam3.1 aminoacylation ribozyme variant]	1.7	1.74	1.97	2.19	2.29	1.88
AGGUUUGCGAAUAGUCGCAAG [Fam3.1 aminoacylation ribozyme variant]	1.75	1.63	2.24	7.75	3.06	1.82
AGGUUUGCUAAUAGUCGGAAG [Fam3.1 aminoacylation ribozyme variant]	0.944	1.22	1.24	12.2	3.12	1.02
AGGUUUGCUAAUAGUCUCAAG [Fam3.1 aminoacylation ribozyme variant]	1.22	1.17	1.36	9.24	2.89	1.22
AGGUUUGCUAAUAGUUGCAAG [Fam3.1 aminoacylation ribozyme variant]	0.924	1.17	0.863	1.44	0.893	0.994
AGGUUUGCUAAUCGUCGCAAG [Fam3.1 aminoacylation ribozyme variant]	1.34	1.42	1.44	2.43	1.98	1.45
AGUACCCUGGUAAUCGAGUGA [Fam2.1 aminoacylation ribozyme variant]	3.23	3.21	7.78	47.6	8.92	8.28
AGUACCCUGGUCAUCGAGAGA [Fam2.1 aminoacylation ribozyme variant]	0.901	0.994	0.888	1.36	0.788	1.14
AGUACCCUGGUCAUCGAGUGA [Fam2.1 aminoacylation ribozyme variant]	6.48	6.11	13.2	28.7	13.6	12.8
AGUACCCUGGUCGUCGAGUGA [Fam2.1 aminoacylation ribozyme variant]	1.24	1.37	1.05	8.09	1.54	1.53
AGUACCCUGGUUAUCGAGUGA [Fam2.1 aminoacylation ribozyme variant]	4.26	3.63	7.87	37.4	9.24	9.55
AGUCACCCAGGUCAUCGGGUG [Fam2.2 aminoacylation ribozyme variant]	4.29	5.28	4.56	57.4	4.54	4.72
AGUCACCGAGGUCAUCGGGUG [Fam2.2 aminoacylation ribozyme variant]	4.46	4.06	5.09	32.8	5.81	4.81
AGUCACCUAAGUCAUCGGGUG [Fam2.2 aminoacylation ribozyme variant]	4.5	4.94	6.86	69.3	6.74	6.89
AGUCACCUAGAUCAUCGGGUG [Fam2.2 aminoacylation ribozyme variant]	3.06	3.96	3.33	17.5	4.5	3.5
AGUCACCUAGGUCAACGGGUG [Fam2.2 aminoacylation ribozyme variant]	2.08	2.57	2.25	9.17	3.02	3.22
